From patent CN106699891A (BEIJING MABWORKS BIOTECH CO LTD, dated 2017)

Target: T1, PD-L1-Fc (UniProt Q9NZQ7 19-238, limits assumed)
T1 construct: extracellular domain; not shown: Fc fragment of human IgG
Assay: SPR (Biacore), antibody captured by anti-human Fab on CM5 chip, PD-L1-Fc as analyte, 1:1 binding fit

T1 sequence (Q9NZQ7 19-238 limits assumed): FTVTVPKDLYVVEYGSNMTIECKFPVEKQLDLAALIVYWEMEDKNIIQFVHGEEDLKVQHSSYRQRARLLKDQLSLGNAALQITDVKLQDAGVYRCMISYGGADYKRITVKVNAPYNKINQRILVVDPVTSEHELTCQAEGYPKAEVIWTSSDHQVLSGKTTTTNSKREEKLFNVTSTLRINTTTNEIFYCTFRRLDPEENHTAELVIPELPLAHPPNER

- Kd: 0.429 nM
- koff: 0.000195 s⁻¹
- kon: 457000 M⁻¹ s⁻¹
B1: Mil85-6抗体 (antibody, V domains shown)
VH: EVQLVESGGGLVQPGGSLRLSCAASGFTFADSWIHWVRQAPGKGLEWVAWISPFGGSNYYADSVKGRFTISADTSKNTAYLQMNSLRAEDTAVYYCARRHWPGGFDYWGQGTLVTVSS
VL: DIQMTQSPSSLSASVGDRVTITCRASQSIGTALNWYQQKPGKAPKLLIYTASSLQSGVPSRFSGSGSGTDFTLTISSLQPEDFATYYCQQDNYTPMTFGQGTKVEIK
notes: also called Mil85-6-5C6; 全抗体
